One block for each substance: values may come before it.
How the values were obtained:
[1] = biological target: CD3 on Jurkat luciferase reporter cells (UniProt P07766); assay: flow cytometry of Jurkat_NFAT_Luc2P cells, FITC-A; fold over hIgG
[2] = biological target: CD3 on Jurkat luciferase reporter cells (UniProt P07766); assay: flow cytometry of Jurkat_NFAT_Luc2P cells; reference value, printed in all three panels on the left
[3] = biological target: CD3 on Jurkat luciferase reporter cells (UniProt P07766); assay: flow cytometry of Jurkat_NFAT_Luc2P cells, PE-A; fold over hIgG

Fold [1]: 45
Substance: mOKT3 (antibody)

Fold [2]: 1
Substance: hIgG (antibody)

Fold [3]: 58
Substance: Commercial CD3e(HiT3a) (antibody)

Reference: patent US20190309093A1
